Assay results reported in the RNAGym collection of RNA variant scans (doi:10.1093/molbev/msab373).

B1: Azoarcus group I ribozyme (parent)
chain: GUGCCUUGCGCCGGGAAACCACGCAAGGGAUGGUGUCAAAUUCGGCGAAACCUAAGCGCCCGCCCGGGCGUAUGGCAACGCCGAGCCAAGCUUCGGCGCCUGCGCCGAUGAAGGUGUAGAGACUAGACGGCACCCACCUAAGGCAAACGCUAUGGUGAAGGCAUAGUCCAGGGAGUGGCGAAAGUCACACAAACCGG

Variants of: B1
Assay: reverse-splicing fitness (ratio to wild type); higher = more active; in vitro selection; Mg2+ level not given
How it was run: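 An in vitro group I ribozyme library with randomized positions was T7-transcribed and gel-purified. In triplicate, 10 pmol RNA in EPPS pH 7.5 was reacted with 50 pmoles of a 30-nt RNA substrate for 1 h at 37 °C across several added MgCl2 levels (1–48 mM), then stopped with EDTA. Products were reverse transcribed from a substrate-complementary primer, PCR-amplified and sequenced (HiSeq 4000). Fitness is a variant's read proportion after selection over that before, normalised to wild type.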

Compared with GUGCCUUGCGCCGGGAAACCACGCAAGGGAUGGUGUCAAAUUCGGCGAAACCUAAGCGCCCGCCCGGGCGUAUGGCAACGCAGAGCCAAGCUUCGGCGCCUGCGCCGAUGCAGGUGUAGCGACUAGACGGCACCCACCUAAGGCCAACGAUAUGGUGAAGGCAUAGUCAAGGGAGCGGCGAAAGUCACACAAACCGG, GUGCCUUGCGCCGGGAAACCACGCAAGGGAUGGUGUCAAAUUCGGCGAAACCUAAGCGCCCGCCCGGGCGUAUGGCAACGCAGAGCCAAGCUUCGGCGCCUGCGCCGAUGCAGGUGUAGCGACUAGACGGCACCCACCUAAGGCCAACGAUAUGGUGAAGGCAUAGUCAAGGGAGAGGCGAAAGUCACACAAACCGG is higher in reverse-splicing fitness: 0.00935 for the first, 0.0167 for the second.

Going from GUGCCUUGCGCCGGGAAACCACGCAAGGGAUGGUGUCAAAUUCGGCGAAACCUAAGCGCCCGCCCGGGCGUAUGGCAACGCAGAGCCAAGCUUCGGCGCCUGCGCCGAUGCAGGUGUAGCGACUAGACGGCACCCACCUAAGGCCAACGAUAUGGUGAAGGCAUAGUCAAGGGAGGGGCGAAAGUCACACAAACCGG to GUGCCUUGCGCCGGGAAACCACGCAAGGGAUGGUGUCAAAUUCGGCGAAACCUAAGCGCCCGCCCGGGCGUAUGGCAACGCAGAGCCAAGCUUCGGCGCCUGCGCCGAUGCAGGUGUAGCGACUAGACGGCACCCACCUAAGGCCAACGAUAUGGUGAAGGCAUAGUCUAGGGAGAGGCGAAAGUCACACAAACCGG, the reverse-splicing fitness rises from 0.00733 to 0.0165.

Compared with GUGCCUUGCGCCGGGAAACCACGCAAGGGAUGGUGUCAAAUUCGGCGAAACCUAAGCGCCCGCCCGGGCGUAUGGCAACGCAGAGCCAAGCUUCGGCGCCUGCGCCGAUGCAGGUGUAGCGACUAGACGGCACCCACCUAAGGCCAACGAUAUGGUGAAGGCAUAGUCUAGGGAGGGGCGAAAGUCACACAAACCGG, GUGCCUUGCGCCGGGAAACCACGCAAGGGAUGGUGUCAAAUUCGGCGAAACCUAAGCGCCCGCCCGGGCGUAUGGCAACGCAGAGCCAAGCUUCGGCGCCUGCGCCGAUGCAGGUGUAGCGACUAGACGGCACCCACCUAAGGCCAACGAUAUGGUGAAGGCAUAGUCUAGGGAGCGGCGAAAGUCACACAAACCGG is higher in reverse-splicing fitness: 0.00786 for the first, 0.0127 for the second.

First: GUGCCUUGCGCCGGGAAACCACGCAAGGGAUGGUGUCAAAUUCGGCGAAACCUAAGCGCCCGCCCGGGCGUAUGGCAACGCAGAGCCAAGCUUCGGCGCCUGCGCCGAUGCAGGUGUAGCGACUAGACGGCACCCACCUAAGGCCAACGAUAUGGUGAAGGCAUAGUCCAGGGAGCGGCGAAAGUCACACAAACCGG
Second: GUGCCUUGCGCCGGGAAACCACGCAAGGGAUGGUGUCAAAUUCGGCGAAACCUAAGCGCCCGCCCGGGCGUAUGGCAACGCAGAGCCAAGCUUCGGCGCCUGCGCCGAUGCAGGUGUAGCGACUAGACGGCACCCACCUAAGGCCAACGAUAUGGUGAAGGCAUAGUCCAGGGAGGGGCGAAAGUCACACAAACCGG
The reverse-splicing fitness of the first is higher: 0.011 for the first, 0.00581 for the second.

Compared with GUGCCUUGCGCCGGGAAACCACGCAAGGGAUGGUGUCAAAUUCGGCGAAACCUAAGCGCCCGCCCGGGCGUAUGGCAACGCAGAGCCAAGCUUCGGCGCCUGCGCCGAUGCAGGUGUAGCGACUAGACGGCACCCACCUAAGGCCAACGAUAUGGUGAAGGCAUAGUCCAGGGAGAGGCGAAAGUCACACAAACCGG, GUGCCUUGCGCCGGGAAACCACGCAAGGGAUGGUGUCAAAUUCGGCGAAACCUAAGCGCCCGCCCGGGCGUAUGGCAACGCAGAGCCAAGCUUCGGCGCCUGCGCCGAUGCAGGUGUAGCGACUAGACGGCACCCACCUAAGGCCAACGCUAUGGUGAAGGCAUAGUCCAGGGAGUGGCGAAAGUCACACAAACCGG is higher in reverse-splicing fitness: 0.0106 for the first, 0.0248 for the second.

Going from GUGCCUUGCGCCGGGAAACCACGCAAGGGAUGGUGUCAAAUUCGGCGAAACCUAAGCGCCCGCCCGGGCGUAUGGCAACGCAGAGCCAAGCUUCGGCGCCUGCGCCGAUGCAGGUGUAGAGACUAGACGGCACCCACCUAAGGCAAACGCUAUGGUGAAGGCAUAGUCCAGGGAGUGGCGAAAGUCACACAAACCGG to GUGCCUUGCGCCGGGAAACCACGCAAGGGAUGGUGUCAAAUUCGGCGAAACCUAAGCGCCCGCCCGGGCGUAUGGCAACGCAGAGCCAAGCUUCGGCGCCUGCGCCGAUGCAGGUGUAGCGACUAGACGGCACCCACCUAAGGCCAACGGUAUGGUGAAGGCAUAGUCAAGGGAGAGGCGAAAGUCACACAAACCGG, the reverse-splicing fitness falls from 0.228 to 0.00949.

First: GUGCCUUGCGCCGGGAAACCACGCAAGGGAUGGUGUCAAAUUCGGCGAAACCUAAGCGCCCGCCCGGGCGUAUGGCAACGCAGAGCCAAGCUUCGGCGCCUGCGCCGAUGCAGGUGUAGCGACUAGACGGCACCCACCUAAGGCCAACGGUAUGGUGAAGGCAUAGUCAAGGGAGCGGCGAAAGUCACACAAACCGG
Second: GUGCCUUGCGCCGGGAAACCACGCAAGGGAUGGUGUCAAAUUCGGCGAAACCUAAGCGCCCGCCCGGGCGUAUGGCAACGCAGAGCCAAGCUUCGGCGCCUGCGCCGAUGCAGGUGUAGCGACUAGACGGCACCCACCUAAGGCCAACGGUAUGGUGAAGGCAUAGUCAAGGGAGGGGCGAAAGUCACACAAACCGG
The reverse-splicing fitness of the first is higher: 0.00798 for the first, 0.00767 for the second.

Work on GUGCCUUGCGCCGGGAAACCACGCAAGGGAUGGUGUCAAAUUCGGCGAAACCUAAGCGCCCGCCCGGGCGUAUGGCAACGCAGAGCCAAGCUUCGGCGCCUGCGCCGAUGCAGGUGUAGCGACUAGACGGCACCCACCUAAGGCCAACGGUAUGGUGAAGGCAUAGUCGAGGGAGUGGCGAAAGUCACACAAACCGG yielded a reverse-splicing fitness of 0.00631.
